Data published in the supplement of paper PMC10567573.

B1: PPEF2 (parent)
chain: FIPSSHNDRDFLTRIFTEDRFAQD
B2: RHOBTB2 (parent)
chain: HHHHGRDFLLRAASFDVCESVDEA

Variants of: B1
Test: protein stability index of a GFP-peptide fusion (GPS, HEK-293T) (PSI 1-6); higher = more stable
Conditions: c terminus: a fixed tail appended
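Also: lentivirally expressed fusions sorted by FACS into six bins by GFP to DsRed ratio, PSI derived from sequencing read proportions per bin multiplied by bin number.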

Protein stability index of substitutions, site by site:
T17: K 3.08; C 3.8; F 1.87; S 2.05; D 1.95; Q 1.79; R 1.73; N 1.68; V 1.85; I 2.08; E 2.19; M 2.54; H 1.54; P 1.97; G 2.7; W 2.79; A 1.71; Y 2.08; L 2.65
N7: F 1.89; I 2.11; Y 2.95; A 1.65; H 3.59; T 2.17; E 2.39; V 1.8; D 1.56; Q 2.46; P 1.92; K 2.99; W 1.6; C 2.17; S 1.73; G 2.01; M 2.22; R 2.33; L 1.97
R14: V 3.04; Q 1.93; F 2.7; D 2.5; H 2.04; S 3.48; I 2.61; C 1.78; Y 1.7; N 2.12; T 2.36; M 2.55; L 2; A 1.58; E 2.34; W 2.5; P 2.81; K 1.55; G 1.95
S4: K 2.29; H 1.76; P 1.8; A 2.19; V 2.29; L 2.02; D 2.11; G 2.53; Q 1.89; E 1.63; T 2.57; M 1.31; N 3.06; R 2.14; F 1.99; W 2.19; C 1.39; Y 1.94; I 3.25
D8: W 2.16; N 1.99; C 2.03; G 2.51; Y 2.55; L 1.52; E 1.53; R 2.25; Q 2.15; S 1.3; T 2.1; V 2.08; H 2.04; P 1.89; K 1.53; F 2.38; M 1.93; A 1.89; I 1.68
L12: V 2.86; K 2.38; H 2.33; C 2.29; F 2.18; S 1.54; Q 1.82; E 2.2; P 1.74; I 3.01; M 1.53; R 1.72; D 2.26; N 1.45; T 2.17; W 2.85; G 1.52; A 2.82; Y 1.98
H6: P 1.49; F 1.21; N 1.47; Q 1.73; L 2.23; Y 2.21; M 1.09; T 1.38; S 1.91; V 1.5; G 2.07; R 1.68; I 2.44; E 1.99; A 1.71; D 2.56; C 1.61; K 2.23; W 1.71
R9: M 2.3; V 2.2; H 1.54; L 1.81; F 2.21; E 1.89; N 1.76; Y 1.89; D 2.18; T 1.74; P 1.69; K 2.48; I 1.76; G 2.01; A 2.23; W 2.3; C 2.23; Q 1.53; S 1.98
F16: C 2.48; L 1.91; H 1.69; Q 2.06; R 1.88; N 2.12; P 2.96; S 1.72; D 2.18; T 2.59; M 1.84; Y 1.21; V 2.6; A 1.76; K 1.47; G 1.92; I 1.83; E 2.02
F1: D 3.89; G 4.38; L 3.73; V 3.88; E 4.06; P 4.18; I 3.54; T 4.21; W 3.04; H 4.22; M 4.06; Y 1.63; S 4.4; C 4.21; A 4.31; R 3.75; N 4.05; Q 4.19; K 3.85
F11: T 1.7; L 1.56; S 1.58; W 1.93; N 2.67; Q 2; D 2.74; H 1.89; G 2.21; P 2.16; A 1.98; R 1.99; E 2.33; Y 2.1; I 1.8; V 2.01; M 2.13; C 2.8; K 1.76
E18: F 2.52; C 2.79; A 2.64; D 2.37; G 1.48
S5: I 2.04; G 1.74; V 2.09; T 2.17; A 2.53; E 2.4; M 1.44; W 1.58; F 1.55; D 2.67; L 1.41; Q 2.55; R 2.03; N 1.92; Y 1.97; C 1.9; P 2.29; K 1.67; H 1.89
T13: S 1.83; N 1.7; E 2; Q 1.55; K 1.38; H 1.6; F 1.5; G 2.42; V 1.8; C 2.75; Y 2.65; I 2.21; A 2.57; R 1.91; L 3.13; D 1.83; P 1.82
P3: D 2.75; C 1.3; N 2.25; K 1.25; M 1.34; F 1.79; W 2.3; H 2.35; Y 1.84; Q 1.92; E 2.82; I 2.19; G 2.1; R 1.72; S 1.91; V 1.97; A 2.23; T 1.99; L 1.92
I15: R 2.9; P 1.91; M 2.24; N 1.83; Y 2.22; C 3.07; D 2.01; L 1.56; S 1.84; K 2.77; G 1.98; Q 2.19; W 2.66; E 2.44; F 2.2; A 1.61; H 2.4; T 2.45
D10: G 2.46; H 2.8; K 1.89; Y 2.39; Q 2.77; I 3.22; C 2.41; S 2.37; P 2.14; W 2.6; F 2.05; M 1.87; N 2.96; E 1.96; V 3.75; T 2.54; R 2.67; A 2.69
I2: F 3.32; C 1.46; P 1.78; W 2.23; R 3.12; T 3.63; E 3.85; Q 1.5; V 2.73; H 2.06; Y 3.38; K 2.92; A 3.29; D 4.44; L 2.96; N 1.96; G 2.62; M 2.07; S 2.2

Variants of: B2
Test: as above
Conditions: c terminus: a fixed tail appended

Protein stability index of substitutions, site by site:
A24: L 3.75; P 3.56; N 3.59; T 3.95; Q 3.86; V 3.27; R 3.75; W 2.53; M 3.61; Y 3.29; S 3.82
